From patent US20140294878A1

How the values were obtained:
[1] = target: IgEs from a pool of sera from patients allergic to birch pollen and apple; experiment: ELISA inhibition, serum pool pre-incubated with 0.625 µg/ml inhibitor; competitor: wt Bet v 1 adsorbed on wells
[2] = target: IgEs from a pool of sera from patients allergic to birch pollen and apple; experiment: ELISA inhibition, serum pool pre-incubated with 0.3125 µg/ml inhibitor; competitor: wt Mal d 1 adsorbed on wells
[3] = target: specific IgE contained in the sera of 7 patients allergic to birch and apple; experiment: ELISA inhibition, 7 sera pre-incubated with 1.25 µg/ml inhibitor; competitor: wt Mal d 1 adsorbed on wells
[4] = target: IgE of patient serum 3; experiment: ELISA inhibition, serum 3 pre-incubated with 1.25 µg/ml inhibitor; competitor: wt Bet v 1 adsorbed on wells
[5] = target: IgE of patient serum 4; experiment: ELISA inhibition, serum 4 pre-incubated with 1.25 µg/ml inhibitor; competitor: wt Mal d 1 adsorbed on wells
[6] = target: IgE of patient serum 6; experiment: ELISA inhibition, serum 6 pre-incubated with 1.25 µg/ml inhibitor; competitor: wt Mal d 1 adsorbed on wells
[7] = target: IgE of patient serum 3; experiment: ELISA inhibition, serum 3 pre-incubated with 1.25 µg/ml inhibitor; competitor: wt Mal d 1 adsorbed on wells
[8] = target: IgE of patient serum 1; experiment: ELISA inhibition, serum 1 pre-incubated with 1.25 µg/ml inhibitor; competitor: wt Bet v 1 adsorbed on wells
[9] = target: IgE of patient serum 7; experiment: ELISA inhibition, serum 7 pre-incubated with 1.25 µg/ml inhibitor; competitor: wt Bet v 1 adsorbed on wells
[10] = target: IgE of patient serum 2; experiment: ELISA inhibition, serum 2 pre-incubated with 1.25 µg/ml inhibitor; competitor: wt Mal d 1 adsorbed on wells
[11] = target: specific IgE contained in the sera of 7 patients allergic to birch and apple; experiment: ELISA inhibition, 7 sera pre-incubated with 1.25 µg/ml inhibitor; competitor: wt Bet v 1 adsorbed on wells
[12] = target: IgE of patient serum 5; experiment: ELISA inhibition, serum 5 pre-incubated with 1.25 µg/ml inhibitor; competitor: wt Mal d 1 adsorbed on wells
[13] = target: IgE of patient serum 6; experiment: ELISA inhibition, serum 6 pre-incubated with 1.25 µg/ml inhibitor; competitor: wt Bet v 1 adsorbed on wells
[14] = target: IgE of patient serum 7; experiment: ELISA inhibition, serum 7 pre-incubated with 1.25 µg/ml inhibitor; competitor: wt Mal d 1 adsorbed on wells
[15] = target: IgE of patient serum 2; experiment: ELISA inhibition, serum 2 pre-incubated with 1.25 µg/ml inhibitor; competitor: wt Bet v 1 adsorbed on wells
[16] = target: IgE of patient serum 5; experiment: ELISA inhibition, serum 5 pre-incubated with 1.25 µg/ml inhibitor; competitor: wt Bet v 1 adsorbed on wells
[17] = target: IgE of patient serum 4; experiment: ELISA inhibition, serum 4 pre-incubated with 1.25 µg/ml inhibitor; competitor: wt Bet v 1 adsorbed on wells
[18] = target: IgE of patient serum 1; experiment: ELISA inhibition, serum 1 pre-incubated with 1.25 µg/ml inhibitor; competitor: wt Mal d 1 adsorbed on wells
[19] = target: IgEs from a pool of sera from patients allergic to birch pollen and apple; experiment: ELISA inhibition, serum pool pre-treated with 0.3125 µg/ml inhibitor; competitor: wt Mal d 1 adsorbed on wells
[20] = target: IgEs from a pool of sera from patients allergic to birch pollen and apple; experiment: ELISA inhibition, serum pool pre-treated with 0.625 µg/ml inhibitor; competitor: wt Bet v 1 adsorbed on wells

Binder	mean % inhibition of Mal d 1-IgE binding (7 sera) [3]	% inhibition of Bet v 1-IgE binding [4]	% inhibition of Mal d 1-IgE binding [5]	% inhibition of Mal d 1-IgE binding [6]	% inhibition of Mal d 1-IgE binding [7]	% inhibition of Bet v 1-IgE binding [8]	% inhibition of Bet v 1-IgE binding [9]	% inhibition of Mal d 1-IgE binding [10]	mean % inhibition of Bet v 1-IgE binding (7 sera) [11]	% inhibition of Mal d 1-IgE binding [12]	% inhibition of Bet v 1-IgE binding [13]	% inhibition of Mal d 1-IgE binding [14]	% inhibition of Bet v 1-IgE binding [15]	% inhibition of Bet v 1-IgE binding [16]	% inhibition of Bet v 1-IgE binding [17]	% inhibition of Mal d 1-IgE binding [18]	further results
hypoallergenic Mal d 1 variant with two substitutions, positions 25 and 78 (SEQ ID NO: 2) (protein) HHHHHHGVYTFENEFTSEIPPSRLFKAFVLAADNLIPKIAPQAIKQAEILEGDGGPGTIKKITFGEGSQYGYVKHKIDSVDEAAYSYAYTLIEGDALTDTIEKVSYETKLVASGSGSIIKSISHYHTKGDVEIKEEHVKAGKEKAHGLFKLIESYLKGHPDAYN																	% inhibition of wt Bet v 1-IgE binding [1]: 4.2%; % inhibition of wt Mal d 1-IgE binding [2]: 25.4%
mixture of the single wt allergens (wt Bet v 1 and wt Mal d 1) (protein) chain 1: HHHHHHGVFNYETETTSVIPAARLFKAFILDGDNLFPKVAPQAISSVENIEGNGGPGTIKKISFPEGFPFKYVKDRVDEVDHTNFKYNYSVIEGGPIGDTLEKISNEIKIVATPDGGSILKINNKYHTKGDHEVKAEQIKASKEMGETLLRAVESYLLAHSDAYN chain 2: HHHHHHGVYTFENEFTSEIPPSRLFKAFVLDADNLIPKIAPQAIKQAEILEGDGGPGTIKKITFGEGSQYGYVKHKIDSVDEANYSYAYTLIEGDALTDTIEKVSYETKLVASGSGSIIKSISHYHTKGDVEIKEEHVKAGKEKAHGLFKLIESYLKGHPDAYN	82.8%	90.9%	77.3%	73.7%	80.5%	97.1%	36.8%	93.9%	79.9%	88.3%	65.2%	70.3%	96.6%	91.6%	81.2%	95.5%	
wild-type Mal d 1, major allergen of Malus domestica (SEQ ID NO: 1) (protein) HHHHHHGVYTFENEFTSEIPPSRLFKAFVLDADNLIPKIAPQAIKQAEILEGDGGPGTIKKITFGEGSQYGYVKHKIDSVDEANYSYAYTLIEGDALTDTIEKVSYETKLVASGSGSIIKSISHYHTKGDVEIKEEHVKAGKEKAHGLFKLIESYLKGHPDAYN																	% inhibition of wt Bet v 1-IgE binding [1]: 46%; % inhibition of wt Mal d 1-IgE binding [19]: 93.3%
mixture of the two mutagenised allergens (mut Bet v 1-SEQ ID NO:6 and mut Mal d 1-SEQ ID NO:2) (protein) chain 1: HHHHHHGVFNYETETTSVIPAARLFKAFILDGDNLFPKVAPQAISSVENIEGNGGPGTIAKISFPEGFPFKYVKDRVDEVDHTNFKYNYSVIEGGPIGDTLEKISNEIKIVATPDGGSILAINNKYHTAGDHEVKAEQIKASKEMGETLLRAVESYLLAHSDAYN chain 2: HHHHHHGVYTFENEFTSEIPPSRLFKAFVLAADNLIPKIAPQAIKQAEILEGDGGPGTIKKITFGEGSQYGYVKHKIDSVDEAAYSYAYTLIEGDALTDTIEKVSYETKLVASGSGSIIKSISHYHTKGDVEIKEEHVKAGKEKAHGLFKLIESYLKGHPDAYN	51.6%	52.3%	46%	53.9%	49%	88.4%	20.6%	42.4%	53.3%	27.6%	41.8%	65.6%	72.8%	41%	56.5%	76.7%	
Mal d 1 variant with the single substitution Asn 78 in Ala (SEQ ID NO: 11) (protein) HHHHHHGVYTFENEFTSEIPPSRLFKAFVLDADNLIPKIAPQAIKQAEILEGDGGPGTIKKITFGEGSQYGYVKHKIDSVDEAAYSYAYTLIEGDALTDTIEKVSYETKLVASGSGSIIKSISHYHTKGDVEIKEEHVKAGKEKAHGLFKLIESYLKGHPDAYN																	% inhibition of SEQ ID NO:1-IgE binding [2]: 19.7%; % inhibition of wt Bet v 1-IgE binding [20]: 32.1%
wild-type Bet v 1-Mal d 1 hybrid molecule (SEQ ID NO: 3) (protein) HHHHHHGVFNYETETTSVIPAARLFKAFILDGDNLFPKVAPQAISSVENIEGNGGPGTIKKISFPEGFPFKYVKDRVDEVDHTNFKYNYSVIEGGPIGDTLEKISNEIKIVATPDGGSILKINNKYHTKGDHEVKAEQIKASKEMGETLLRAVESYLLAHSDAYNEFGVYTFENEFTSEIPPSRLFKAFVLDADNLIPKIAPQAIKQAEILEGDGGPGTIKKITFGEGSQYGYVKHKIDSVDEANYSYAYTLIEGDALTDTIEKVSYETKLVASGSGSIIKSISHYHTKGDVEIKEEHVKAGKEKAHGLFKLIESYLKGHPDAYN	74.6%	76.2%	71.3%	70.5%	75.1%	93.6%	15.9%	84.5%	63.3%	68%	56.6%	60.6%	85.1%	50.8%	61.7%	92%	
mutant Bet v 1-Mal d 1 hybrid molecule (SEQ ID NO: 4) (protein) HHHHHHGVFNYETETTSVIPAARLFKAFILDGDNLFPKVAPQAISSVENIEGNGGPGTIAKISFPEGFPFKYVKDRVDEVDHTNFKYNYSVIEGGPIGDTLEKISNEIKIVATPDGGSILAINNKYHTAGDHEVKAEQIKASKEMGETLLRAVESYLLAHSDAYNEFGVYTFENEFTSEIPPSRLFKAFVLAADNLIPKIAPQAIKQAEILEGDGGPGTIKKITFGEGSQYGYVKHKIDSVDEAAYSYAYTLIEGDALTDTIEKVSYETKLVASGSGSIIKSISHYHTKGDVEIKEEHVKAGKEKAHGLFKLIESYLKGHPDAYN	63.6%	35.9%	64.3%	70.8%	66.3%	90.2%	18.2%	41.9%	32.1%	50.8%	0%	60.4%	36.4%	7.8%	35.9%	91%	
wild-type Bet v 1, major allergen of Betula verrucosa pollen (SEQ ID NO: 5) (protein) HHHHHHGVFNYETETTSVIPAARLFKAFILDGDNLFPKVAPQAISSVENIEGNGGPGTIKKISFPEGFPFKYVKDRVDEVDHTNFKYNYSVIEGGPIGDTLEKISNEIKIVATPDGGSILKINNKYHTKGDHEVKAEQIKASKEMGETLLRAVESYLLAHSDAYN																	% inhibition of wt Bet v 1-IgE binding [20]: 94%
